The record followed here is patent US20250352667A1.

Assay [1] has as its target KEAP1 (wild-type full-length), His-tagged (human) (UniProt Q14145). Description: AlphaScreen; 614.4 nM FLAG-NRF2, 150 nM His-KEAP1; Rep 2; control for I86V. On the technique in general: Alpha assays give light when donor and acceptor beads are brought close together.
Assay [2] has the same target. Description: AlphaScreen; FLAG-NRF2 wt isoform 1 4.8 nM, His-KEAP1 150 nM; Rep 1; positive control for Q75R.
For assay [3] the target is unchanged. Description: AlphaScreen, all variants on one plate; lower condition (9.6 nM NRF2), KEAP1 150 nM; the reference itself.
Assay [4] shares this target. Description: AlphaScreen; FLAG-NRF2 wt isoform 1 38.4 nM, His-KEAP1 150 nM; Repeat 1; positive control for Q75R.
For assay [5] the target is unchanged. Description: AlphaScreen; FLAG-NRF2 wt isoform 1 19.2 nM, His-KEAP1 150 nM; Rep 1; positive control for I86V.
Assay [6] has the same target. Briefly: AlphaScreen; 1228.8 nM FLAG-NRF2, 150 nM His-KEAP1; Rep 2; control for I86V.
Assay [7] has the same target. Briefly: AlphaScreen; FLAG-NRF2 wt isoform 1 9.6 nM, His-KEAP1 150 nM; Rep 2; positive control for Q75R.
Assay [8] has the same target. Briefly: AlphaScreen; FLAG-NRF2 wt isoform 1 19.2 nM, His-KEAP1 150 nM; Rep 3; positive control for I86V.
Assay [9] shares this target. Briefly: AlphaScreen; 19.2 nM FLAG-NRF2, 150 nM His-KEAP1; wild type set to 100%.
Assay [10] shares this target. Briefly: AlphaScreen; 76.8 nM FLAG-NRF2, 150 nM His-KEAP1; Rep 2; control for I86V.
For assay [11] the target is unchanged. Description: AlphaScreen, all variants on one plate; upper condition (38.4 nM NRF2), KEAP1 150 nM; the reference itself.
The target is the same in assay [12]. Description: AlphaScreen; FLAG-NRF2 wt isoform 1 38.4 nM, His-KEAP1 150 nM; Rep 1; positive control for Q75R.
The target is the same in assay [13]. Description: AlphaScreen; FLAG-NRF2 I86V 4.8 nM, His-KEAP1 150 nM; Rep 2.
For assay [14] the target is unchanged. Description: AlphaScreen; FLAG-NRF2 I86V 38.4 nM, His-KEAP1 150 nM; Rep 1.
The target is the same in assay [15]. Briefly: AlphaScreen; NRF2 I86V 4.8 nM, KEAP1 150 nM; signal against NRF2-only control.
For assay [16] the target is unchanged. Briefly: AlphaScreen; FLAG-NRF2 Q75R 19.2 nM, His-KEAP1 150 nM; Repeat 1.
The target is the same in assay [17]. Briefly: AlphaScreen; FLAG-NRF2 Q75R 307.2 nM, His-KEAP1 150 nM; Rep 1.
Assay [18] has the same target. Briefly: AlphaScreen; FLAG-NRF2 Q75R 153.6 nM, His-KEAP1 150 nM; Rep 1.
For assay [19] the target is unchanged. Description: AlphaScreen; NRF2 Q75R 307.2 nM, KEAP1 150 nM; signal against NRF2-only control.
Assay [20] has the same target. Briefly: AlphaScreen; NRF2 Q75R 76.8 nM, KEAP1 150 nM; signal against NRF2-only control.
For assay [21] the target is unchanged. Briefly: AlphaScreen; NRF2 Q75R 1228.8 nM, KEAP1 150 nM; signal against NRF2-only control.
Assay [22] shares this target. Briefly: AlphaScreen; 19.2 nM FLAG-NRF2, 150 nM His-KEAP1; Repeat 1 (same value as in Table 27).
Assay [23] shares this target. Briefly: AlphaScreen; 153.6 nM FLAG-NRF2, 150 nM His-KEAP1; Rep 2.
Assay [24] shares this target. Briefly: AlphaScreen; 9.6 nM FLAG-NRF2, 150 nM His-KEAP1; Repeat 1 (same value as in Table 27).
Assay [25] has the same target. Description: AlphaScreen; 1228.8 nM FLAG-NRF2, 150 nM His-KEAP1; Rep 1.
For assay [26] the target is unchanged. Briefly: AlphaScreen; 153.6 nM FLAG-NRF2, 150 nM His-KEAP1; signal against NRF2 only.
The target is the same in assay [27]. Briefly: AlphaScreen; 19.2 nM FLAG-NRF2, 150 nM His-KEAP1; against wild-type NRF2 isoform 1 = 100%.

KEAP1 (wild-type full-length), His-tagged (human), sequence (Q14145 2-624 limits assumed): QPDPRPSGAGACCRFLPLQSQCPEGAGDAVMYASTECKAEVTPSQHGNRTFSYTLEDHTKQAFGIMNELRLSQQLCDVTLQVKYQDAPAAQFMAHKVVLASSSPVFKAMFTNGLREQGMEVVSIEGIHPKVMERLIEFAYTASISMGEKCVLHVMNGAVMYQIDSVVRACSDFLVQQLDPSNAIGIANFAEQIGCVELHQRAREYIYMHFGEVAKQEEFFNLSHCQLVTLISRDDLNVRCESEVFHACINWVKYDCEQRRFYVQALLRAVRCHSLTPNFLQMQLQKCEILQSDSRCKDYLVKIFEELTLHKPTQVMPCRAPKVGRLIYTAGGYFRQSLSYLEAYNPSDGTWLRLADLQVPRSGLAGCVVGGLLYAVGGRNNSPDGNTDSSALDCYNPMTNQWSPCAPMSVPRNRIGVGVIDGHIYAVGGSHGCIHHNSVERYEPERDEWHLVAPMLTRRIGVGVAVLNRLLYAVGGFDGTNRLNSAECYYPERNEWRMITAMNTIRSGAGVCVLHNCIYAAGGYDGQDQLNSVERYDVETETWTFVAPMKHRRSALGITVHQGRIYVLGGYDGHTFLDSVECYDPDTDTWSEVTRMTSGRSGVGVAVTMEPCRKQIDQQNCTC

B1: NRF2 isoform 1 (wild-type full-length), FLAG-tagged (protein)
chain: MMDLELPPPGLPSQQDMDLIDILWRQDIDLGVSREVFDFSQRRKEYELEKQKKLEKERQEQLQKEQEKAFFAQLQLDEETGEFLPIQPAQHIQSETSGSANYSQVAHIPKSDALYFDDCMQLLAQTFPFVDDNEVSSATFQSLVPDIPGHIESPVFIATNQAQSPETSVAQVAPVDLDGMQQDIEQVWEELLSIPELQCLNIENDKLVETTMVPSPEAKLTEVDNYHFYSSIPSMEKEVGNCSPHFLNAFEDSFSSILSTEDPNQLTVNSLNSDATVNTDFGDEFYSAFIAEPSISNSMPSPATLSHSLSELLNGPIDVSDLSLCKAFNQNHPESTAEFNDSDSGISLNTSPSVASPEHSVESSSYGDTLLGLSDSEVEELDSAPGSVKQNGPKTPVHSSGDMVQPLSPSQGQSTHVHDAQCENTPEKELPVSPGHRKTPFTKDKHSSRLEAHLTRDELRAKALHIPFPVEKIINLPVVDFNEMMSKEQFNEAQLALIRDIRRRGKNKVAAQNCRKRKLENIVELEQDLDHLKDEKEKLLKEKGENDKSLHLLKKQLSTLYLEVFSMLRDEDGKPYSPSEYSLQQTRDGNVFLVPKSKKPDVKKN
Turning to B1, the A-counts in assay [1] was found to be 2520 A-counts; in assay [6], 2770 A-counts; in [10] it was 2780 A-counts. Further, the A-counts (NRF2 plus KEAP1) in assay [2] was determined as 725 A-counts; in assay [4], 1480 A-counts; in [5], 3300 A-counts; in assay [7], 900 A-counts; in [8], 3040 A-counts; in [12], 1480 A-counts. Besides, the % Disruption in Binding in assay [3] and in assay [11] was 0% each time. In [9], this molecule registered a Binding Percentage (%) of 100%.

B2: NRF2 isoform 1 (I86V full-length), FLAG-tagged (protein)
chain: MMDLELPPPGLPSQQDMDLIDILWRQDIDLGVSREVFDFSQRRKEYELEKQKKLEKERQEQLQKEQEKAFFAQLQLDEETGEFLPVQPAQHIQSETSGSANYSQVAHIPKSDALYFDDCMQLLAQTFPFVDDNEVSSATFQSLVPDIPGHIESPVFIATNQAQSPETSVAQVAPVDLDGMQQDIEQVWEELLSIPELQCLNIENDKLVETTMVPSPEAKLTEVDNYHFYSSIPSMEKEVGNCSPHFLNAFEDSFSSILSTEDPNQLTVNSLNSDATVNTDFGDEFYSAFIAEPSISNSMPSPATLSHSLSELLNGPIDVSDLSLCKAFNQNHPESTAEFNDSDSGISLNTSPSVASPEHSVESSSYGDTLLGLSDSEVEELDSAPGSVKQNGPKTPVHSSGDMVQPLSPSQGQSTHVHDAQCENTPEKELPVSPGHRKTPFTKDKHSSRLEAHLTRDELRAKALHIPFPVEKIINLPVVDFNEMMSKEQFNEAQLALIRDIRRRGKNKVAAQNCRKRKLENIVELEQDLDHLKDEKEKLLKEKGENDKSLHLLKKQLSTLYLEVFSMLRDEDGKPYSPSEYSLQQTRDGNVFLVPKSKKPDVKKN
With B2, the figures for the A-counts (NRF2 plus KEAP1) in [13] and in assay [14] were 2110 A-counts and 3010 A-counts, respectively. This molecule also displayed a S/N in assay [15] of 2.9.

B3: NRF2 isoform 1 (Q75R full-length), FLAG-tagged (protein)
chain: MMDLELPPPGLPSQQDMDLIDILWRQDIDLGVSREVFDFSQRRKEYELEKQKKLEKERQEQLQKEQEKAFFAQLRLDEETGEFLPIQPAQHIQSETSGSANYSQVAHIPKSDALYFDDCMQLLAQTFPFVDDNEVSSATFQSLVPDIPGHIESPVFIATNQAQSPETSVAQVAPVDLDGMQQDIEQVWEELLSIPELQCLNIENDKLVETTMVPSPEAKLTEVDNYHFYSSIPSMEKEVGNCSPHFLNAFEDSFSSILSTEDPNQLTVNSLNSDATVNTDFGDEFYSAFIAEPSISNSMPSPATLSHSLSELLNGPIDVSDLSLCKAFNQNHPESTAEFNDSDSGISLNTSPSVASPEHSVESSSYGDTLLGLSDSEVEELDSAPGSVKQNGPKTPVHSSGDMVQPLSPSQGQSTHVHDAQCENTPEKELPVSPGHRKTPFTKDKHSSRLEAHLTRDELRAKALHIPFPVEKIINLPVVDFNEMMSKEQFNEAQLALIRDIRRRGKNKVAAQNCRKRKLENIVELEQDLDHLKDEKEKLLKEKGENDKSLHLLKKQLSTLYLEVFSMLRDEDGKPYSPSEYSLQQTRDGNVFLVPKSKKPDVKKN
Consider B3, for which the A-counts (NRF2 plus KEAP1) in assay [16] is 1300 A-counts; in assay [17], 995 A-counts; in [18], 1070 A-counts. Also, the S/N was 1 in assay [19], 1.8 in assay [20] and 0.9 in assay [21].

B4: NRF2 isoform 1 (I28V full-length), FLAG-tagged (protein)
chain: MMDLELPPPGLPSQQDMDLIDILWRQDVDLGVSREVFDFSQRRKEYELEKQKKLEKERQEQLQKEQEKAFFAQLQLDEETGEFLPIQPAQHIQSETSGSANYSQVAHIPKSDALYFDDCMQLLAQTFPFVDDNEVSSATFQSLVPDIPGHIESPVFIATNQAQSPETSVAQVAPVDLDGMQQDIEQVWEELLSIPELQCLNIENDKLVETTMVPSPEAKLTEVDNYHFYSSIPSMEKEVGNCSPHFLNAFEDSFSSILSTEDPNQLTVNSLNSDATVNTDFGDEFYSAFIAEPSISNSMPSPATLSHSLSELLNGPIDVSDLSLCKAFNQNHPESTAEFNDSDSGISLNTSPSVASPEHSVESSSYGDTLLGLSDSEVEELDSAPGSVKQNGPKTPVHSSGDMVQPLSPSQGQSTHVHDAQCENTPEKELPVSPGHRKTPFTKDKHSSRLEAHLTRDELRAKALHIPFPVEKIINLPVVDFNEMMSKEQFNEAQLALIRDIRRRGKNKVAAQNCRKRKLENIVELEQDLDHLKDEKEKLLKEKGENDKSLHLLKKQLSTLYLEVFSMLRDEDGKPYSPSEYSLQQTRDGNVFLVPKSKKPDVKKN
Take B4: the A-counts in [22] was found to be 1730 A-counts; in assay [23] it was 1440 A-counts; in [24], 1570 A-counts; in [25], 995 A-counts. Moreover, the S/N in assay [26] was 1.7. Also, in assay [27], the Binding Percentage (%) was 68.3%.
